{"source": "patent US20260317437", "about": "(published 2026)", "binders": {"B1": {"name": "VL Y94H (antibody, V domains shown)", "VH": "EVQLVESGGGLVQPGGSLRLSCAASGFNIYYNYIHWVRQAPGKGLEWVAEFSPYSGSTYYADSVKGRFTISADTSKNTAYLQMNSLRAEDTAVYYCARSAAIVDWYDYFKGFDYWGQGTLVTVSS", "VL": "DIQMTQSPSSLSASVGDRVTITCRASQSVSSAVAWYQQKPGKAPKLLIYSASSLYSGVPSRFSGSRSGTDFTLTISSLQPEDFATYYCQQYGSHLYTFGQGTKVEIK"}, "B2": {"name": "VH Y31T (antibody, V domains shown)", "VH": "EVQLVESGGGLVQPGGSLRLSCAASGFNIYTNYIHWVRQAPGKGLEWVAEFSPYSGSTYYADSVKGRFTISADTSKNTAYLQMNSLRAEDTAVYYCARSAAIVDWYDYFKGFDYWGQGTLVTVSS", "VL": "DIQMTQSPSSLSASVGDRVTITCRASQSVSSAVAWYQQKPGKAPKLLIYSASSLYSGVPSRFSGSRSGTDFTLTISSLQPEDFATYYCQQYGSYLYTFGQGTKVEIK"}, "B3": {"name": "VL Y91W (antibody, V domains shown)", "VH": "EVQLVESGGGLVQPGGSLRLSCAASGFNIYYNYIHWVRQAPGKGLEWVAEFSPYSGSTYYADSVKGRFTISADTSKNTAYLQMNSLRAEDTAVYYCARSAAIVDWYDYFKGFDYWGQGTLVTVSS", "VL": "DIQMTQSPSSLSASVGDRVTITCRASQSVSSAVAWYQQKPGKAPKLLIYSASSLYSGVPSRFSGSRSGTDFTLTISSLQPEDFATYYCQQWGSYLYTFGQGTKVEIK"}, "B4": {"name": "VL Y94F (antibody, V domains shown)", "VH": "EVQLVESGGGLVQPGGSLRLSCAASGFNIYYNYIHWVRQAPGKGLEWVAEFSPYSGSTYYADSVKGRFTISADTSKNTAYLQMNSLRAEDTAVYYCARSAAIVDWYDYFKGFDYWGQGTLVTVSS", "VL": "DIQMTQSPSSLSASVGDRVTITCRASQSVSSAVAWYQQKPGKAPKLLIYSASSLYSGVPSRFSGSRSGTDFTLTISSLQPEDFATYYCQQYGSFLYTFGQGTKVEIK"}, "B5": {"name": "VL Y94R (antibody, V domains shown)", "VH": "EVQLVESGGGLVQPGGSLRLSCAASGFNIYYNYIHWVRQAPGKGLEWVAEFSPYSGSTYYADSVKGRFTISADTSKNTAYLQMNSLRAEDTAVYYCARSAAIVDWYDYFKGFDYWGQGTLVTVSS", "VL": "DIQMTQSPSSLSASVGDRVTITCRASQSVSSAVAWYQQKPGKAPKLLIYSASSLYSGVPSRFSGSRSGTDFTLTISSLQPEDFATYYCQQYGSRLYTFGQGTKVEIK"}, "B6": {"name": "VL Y94L (antibody, V domains shown)", "VH": "EVQLVESGGGLVQPGGSLRLSCAASGFNIYYNYIHWVRQAPGKGLEWVAEFSPYSGSTYYADSVKGRFTISADTSKNTAYLQMNSLRAEDTAVYYCARSAAIVDWYDYFKGFDYWGQGTLVTVSS", "VL": "DIQMTQSPSSLSASVGDRVTITCRASQSVSSAVAWYQQKPGKAPKLLIYSASSLYSGVPSRFSGSRSGTDFTLTISSLQPEDFATYYCQQYGSLLYTFGQGTKVEIK"}, "B7": {"name": "VL S93T (antibody, V domains shown)", "VH": "EVQLVESGGGLVQPGGSLRLSCAASGFNIYYNYIHWVRQAPGKGLEWVAEFSPYSGSTYYADSVKGRFTISADTSKNTAYLQMNSLRAEDTAVYYCARSAAIVDWYDYFKGFDYWGQGTLVTVSS", "VL": "DIQMTQSPSSLSASVGDRVTITCRASQSVSSAVAWYQQKPGKAPKLLIYSASSLYSGVPSRFSGSRSGTDFTLTISSLQPEDFATYYCQQYGTYLYTFGQGTKVEIK"}, "B8": {"name": "VL S93Q (antibody, V domains shown)", "VH": "EVQLVESGGGLVQPGGSLRLSCAASGFNIYYNYIHWVRQAPGKGLEWVAEFSPYSGSTYYADSVKGRFTISADTSKNTAYLQMNSLRAEDTAVYYCARSAAIVDWYDYFKGFDYWGQGTLVTVSS", "VL": "DIQMTQSPSSLSASVGDRVTITCRASQSVSSAVAWYQQKPGKAPKLLIYSASSLYSGVPSRFSGSRSGTDFTLTISSLQPEDFATYYCQQYGQYLYTFGQGTKVEIK"}}, "molecular_target": "GCGR extracellular domain (human, UniProt P47871)", "sequence (P47871 26-477)": "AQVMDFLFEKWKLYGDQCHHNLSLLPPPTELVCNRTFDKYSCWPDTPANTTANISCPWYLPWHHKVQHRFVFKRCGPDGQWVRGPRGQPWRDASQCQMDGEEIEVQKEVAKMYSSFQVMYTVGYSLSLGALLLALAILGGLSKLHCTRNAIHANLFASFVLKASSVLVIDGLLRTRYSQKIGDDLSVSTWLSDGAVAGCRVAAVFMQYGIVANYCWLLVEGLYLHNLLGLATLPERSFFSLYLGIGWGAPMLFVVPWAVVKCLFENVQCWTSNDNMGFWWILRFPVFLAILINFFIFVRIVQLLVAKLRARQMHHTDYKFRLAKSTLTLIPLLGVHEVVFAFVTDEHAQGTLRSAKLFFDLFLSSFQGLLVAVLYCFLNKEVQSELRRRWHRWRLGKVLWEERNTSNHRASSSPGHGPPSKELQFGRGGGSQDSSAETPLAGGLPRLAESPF", "assay": "SPR"}
{"binder": "B1", "values": [{"measurement": "Kd", "result": 3.02, "unit": "nM"}]}
{"binder": "B2", "values": [{"measurement": "Kd", "result": 194, "unit": "nM"}]}
{"binder": "B3", "values": [{"measurement": "Kd", "result": 3.02, "unit": "nM"}]}
{"binder": "B4", "values": [{"measurement": "Kd", "result": 2.23, "unit": "nM"}]}
{"binder": "B5", "values": [{"measurement": "Kd", "result": 1.41, "unit": "nM"}]}
{"binder": "B6", "values": [{"measurement": "Kd", "result": 2.05, "unit": "nM"}]}
{"binder": "B7", "values": [{"measurement": "Kd", "result": 1.27, "unit": "nM"}]}
{"binder": "B8", "values": [{"measurement": "Kd", "result": 2.18, "unit": "nM"}]}
